Patent publication US20150023959A1 (BIOVERATIV THERAPEUTICS, published 2015)

Target: T1, FVIII-155/VWF-031 heterodimer
T1 construct: The two chains are held together by disulfide bonds between the Fc regions; also called FVIII155/VWF31 heterodimer; FVIII155:VWF31
Assay: Octet BLI, heterodimer immobilized on protein G sensor, FVIII in solution
Method: For the assay, full length VWF was captured by using APS sensor. The binding of FVIIIFc and FVIII to the full-length VWF is shown at the lower left panel. The lack of binding of FVIIIY1680 (a mutant having no affinity for VWF) and FVIII:VWF heterodimer (FVIII155/VWF031) is shown at the lower right panel. […] The binding of the constructs to FVIII was measured.
The same experiment was performed in reverse orientation to determine if the D′D3 portion in the FVIII-VWF heterodimer can interact with other FVIII molecules not covalently attached to D′D3. […] Protein G alone with FVIII was used as control. These binding experiments confirmed that D′D3 in heterodimer can interact with only one FVIII molecule which is covalently attached to it and prevent FVIII from interacting with full length wild type VWF molecules.

T1 sequence (chain, as listed by the source): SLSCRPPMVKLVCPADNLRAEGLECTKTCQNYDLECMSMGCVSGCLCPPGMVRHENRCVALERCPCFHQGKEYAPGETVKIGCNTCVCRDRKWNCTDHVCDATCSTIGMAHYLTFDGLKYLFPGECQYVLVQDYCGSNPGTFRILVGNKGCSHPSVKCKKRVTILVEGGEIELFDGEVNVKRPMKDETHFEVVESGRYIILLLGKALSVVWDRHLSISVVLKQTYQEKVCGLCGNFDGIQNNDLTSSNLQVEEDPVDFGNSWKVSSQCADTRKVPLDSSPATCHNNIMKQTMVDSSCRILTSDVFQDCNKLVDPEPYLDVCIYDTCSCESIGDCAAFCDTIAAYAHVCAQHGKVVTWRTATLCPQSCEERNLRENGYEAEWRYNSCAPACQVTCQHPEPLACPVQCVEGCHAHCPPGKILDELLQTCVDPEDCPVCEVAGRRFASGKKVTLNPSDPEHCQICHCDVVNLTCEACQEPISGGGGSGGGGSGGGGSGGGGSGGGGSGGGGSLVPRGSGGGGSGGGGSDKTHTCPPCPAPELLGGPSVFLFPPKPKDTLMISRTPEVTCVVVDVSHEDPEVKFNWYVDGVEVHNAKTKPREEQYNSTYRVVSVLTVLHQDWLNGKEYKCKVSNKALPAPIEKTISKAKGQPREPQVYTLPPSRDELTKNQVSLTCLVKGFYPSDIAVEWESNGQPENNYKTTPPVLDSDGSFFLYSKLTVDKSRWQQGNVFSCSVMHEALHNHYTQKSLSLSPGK

B1: rFVIII (other)
chain: ATRRYYLGAVELSWDYMQSDLGELPVDARFPPRVPKSFPFNTSVVYKKTLFVEFTDHLFNIAKPRPPWMGLLGPTIQAEVYDTVVITLKNMASHPVSLHAVGVSYWKASEGAEYDDQTSQREKEDDKVFPGGSHTYVWQVLKENGPMASDPLCLTYSYLSHVDLVKDLNSGLIGALLVCREGSLAKEKTQTLHKFILLFAVFDEGKSWHSETKNSLMQDRDAASARAWPKMHTVNGYVNRSLPGLIGCHRKSVYWHVIGMGTTPEVHSIFLEGHTFLVRNHRQASLEISPITFLTAQTLLMDLGQFLLFCHISSHQHDGMEAYVKVDSCPEEPQLRMKNNEEAEDYDDDLTDSEMDVVRFDDDNSPSFIQIRSVAKKHPKTWVHYIAAEEEDWDYAPLVLAPDDRSYKSQYLNNGPQRIGRKYKKVRFMAYTDETFKTREAIQHESGILGPLLYGEVGDTLLIIFKNQASRPYNIYPHGITDVRPLYSRRLPKGVKHLKDFPILPGEIFKYKWTVTVEDGPTKSDPRCLTRYYSSFVNMERDLASGLIGPLLICYKESVDQRGNQIMSDKRNVILFSVFDENRSWYLTENIQRFLPNPAGVQLEDPEFQASNIMHSINGYVFDSLQLSVCLHEVAYWYILSIGAQTDFLSVFFSGYTFKHKMVYEDTLTLFPFSGETVFMSMENPGLWILGCHNSDFRNRGMTALLKVSSCDKNTGDYYEDSYEDISAYLLSKNNAIEPRSFSQNPPVLKRHQREITRTTLQSDQEEIDYDDTISVEMKKEDFDIYDEDENQSPRSFQKKTRHYFIAAVERLWDYGMSSSPHVLRNRAQSGSVPQFKKVVFQEFTDGSFTQPLYRGELNEHLGLLGPYIRAEVEDNIMVTFRNQASRPYSFYSSLISYEEDQRQGAEPRKNFVKPNETKTYFWKVQHHMAPTKDEFDCKAWAYFSDVDLEKDVHSGLIGPLLVCHTNTLNPAHGRQVTVQEFALFFTIFDETKSWYFTENMERNCRAPCNIQMEDPTFKENYRFHAINGYIMDTLPGLVMAQDQRIRWYLLSMGSNENIHSIHFSGHVFTVRKKEEYKMALYNLYPGVFETVEMLPSKAGIWRVECLIGEHLHAGMSTLFLVYSNKCQTPLGMASGHIRDFQITASGQYGQWAPKLARLHYSGSINAWSTKEPFSWIKVDLLAPMIIHGIKTQGARQKFSSLYISQFIIMYSLDGKKWQTYRGNSTGTLMVFFGNVDSSGIKHNIFNPPIIARYIRLHPTHYSIRSTLRMELMGCDLNSCSMPLGMESKAISDAQITASSYFTNMFATWSPSKARLHLQGRSNAWRPQVNNPKEWLQVDFQKTMKVTGVTTQGVKSLLTSMYVKEFLISSSQDGHQWTLFFQNGKVKVFQGNQDSFTPVVNSLDPPLLTRYLRIHPQSWVHQIALRMEVLGCEAQDLY
notes: also called wild type FVIII
- binding result: no binding
